Reference: patent US20030143735A1 (University of Pennsylvania, published 2003)

Biological target: T1, HIV-1 p55gag precursor polyprotein (HIV-1, UniProt P04591 1-500)
T1 construct: In vitro translated control protein
Assay: coimmunoprecipitation of 35S-labeled in vitro translated proteins, SDS-PAGE

B1: human Vpr Interacting Protein (hVIP), 35S-labeled, in vitro translated (other)
chain: MHARAAASVMDICRIRLDHAVSMSTFFFFLSSGMEVDAAVVPSVMACGVTGSVSVALHPLVILNISDHWIRMRSHQGRPVQVIGALIGKQEGRNIEVMNSFELLSHTVEEKIIIDKEYYYTKEEQFKQVFKELEFLGWYTTGGPPDPSDIHVHKQCCEIIESPLFLKLNPMTKHTDLPVSVFESVIDIINGEATMLFAELTYTLATEEAERIGVDHVARMTATGSGENSTVAEHLIAQHSAIKMLHSRVKLILEYVKASEAGEVPFNHEILREAYALCHCLPVLSTDKFKTDFYDQCNDVGLMAYLGTITKTCNTMNQFVNKFNVLYDRQGIGRRMRGLFF
modifications: 35S radiolabel
notes: In vitro translated hVIP of the coimmunoprecipitation assay; Anti-Express antibody was among the antibodies used, so it may have
binding result: no binding
